Target: HLA-A2 (human)

Substance: HLA-A2 high affinity positive control epitope from HIV-1 pol476-484 ([…]) (peptide)
- C50: 0.2 µM

From patent EP1618130B1
